Key:
Assay in all cases: cell-based or functional assay
[1] = target: HIV-1 Env pseudovirus 191084 B7-19 (HIV-1)
[2] = target: HIV-1 Env pseudovirus 211-9 (HIV-1)
[3] = target: HIV-1 Env pseudovirus 6041.v3.c23 (HIV-1)
[4] = target: HIV-1 Env pseudovirus BJOX009000.02.4 (HIV-1)
[5] = target: HIV-1 Env pseudovirus BJOX015000.11.5 (HIV-1)
[6] = target: HIV-1 Env pseudovirus C4118.c09 (HIV-1)
[7] = target: HIV-1 Env pseudovirus P1981_C5_3 (HIV-1)
[8] = target: HIV-1 Env pseudovirus T251-18 (HIV-1)
[9] = target: HIV-1 Env pseudovirus X1193_c1 (HIV-1)
[10] = target: HIV-1 Env pseudovirus X2088_c9 (HIV-1)
[11] = target: HIV-1 Env of pseudovirus 1006_11_C3_1601 (clade B (T/F)) (HIV-1)
[12] = target: HIV-1 Env of pseudovirus 246F C1G (clade C (T/F)) (HIV-1)
[13] = target: HIV-1 Env of pseudovirus BF1266.431a (clade C (T/F)) (HIV-1)
[14] = target: HIV-1 Env of pseudovirus CNE17 (clade BC) (HIV-1)
[15] = target: HIV-1 Env of pseudovirus CNE20 (clade BC) (HIV-1)
[16] = target: HIV-1 Env of pseudovirus CNE58 (clade BC) (HIV-1)
[17] = target: HIV-1 Env of pseudovirus Ce0682_E4 (clade C (T/F)) (HIV-1)
[18] = target: HIV-1 Env of pseudovirus Ce1086_B2 (clade C (T/F)) (HIV-1)
[19] = target: HIV-1 Env of pseudovirus Ce1176_A3 (clade C (T/F)) (HIV-1)
[20] = target: HIV-1 Env of pseudovirus Ce2060_G9 (clade C (T/F)) (HIV-1)
[21] = target: HIV-1 Env of pseudovirus Ce704809221_1B3 (clade C (T/F)) (HIV-1)
[22] = target: HIV-1 Env of pseudovirus HIV-0013095-2.11 (clade C) (HIV-1)
[23] = target: HIV-1 Env of pseudovirus Q769.d22 (clade A) (HIV-1)
[24] = target: HIV-1 Env of pseudovirus SC05_8C11_2344 (clade B (T/F)) (HIV-1)
[25] = target: HIV-1 Env of pseudovirus TRJO4551.58 (clade B) (HIV-1)
[26] = target: HIV-1 Env of pseudovirus WEAU_d15_410_787 (clade B (T/F)) (HIV-1)
[27] = target: HIV-1 Env of pseudovirus WITO4160.33 (clade B) (HIV-1)
[28] = target: HIV-1 Env of pseudovirus ZM249M.PL1 (clade C) (HIV-1)
[29] = target: HIV-1 Env of pseudovirus C4118.c09 (clade CRF01_AE) (HIV-1)
[30] = target: HIV-1 Env of pseudovirus R1166.c01 (clade CRF01_AE) (HIV-1)
[31] = target: HIV-1 Env of pseudovirus T251-18 (clade CRF02_AG) (HIV-1)
[32] = target: HIV-1 Env of pseudovirus T255-34 (clade CRF02_AG) (HIV-1)

Substance: N49P19 (antibody)
- IC50 [1]: 0.357 µg/mL
- IC80 [1]: 1.34 µg/mL
- MPI [1]: 100
- IC50 [2]: 3.23 µg/mL
- IC80 [2]: 19 µg/mL
- MPI [2]: 93
- IC50 [3]: > 50 µg/mL
- IC80 [3]: > 50 µg/mL
- MPI [3]: 32
- IC50 [4]: 3.66 µg/mL
- IC80 [4]: 25.6 µg/mL
- MPI [4]: 87
- IC50 [5]: 0.756 µg/mL
- IC80 [5]: 3.17 µg/mL
- MPI [5]: 99
- IC50 [6]: 0.386 µg/mL
- IC80 [6]: 1.36 µg/mL
- MPI [6]: 100
- IC50 [7]: 20.2 µg/mL
- IC80 [7]: > 50 µg/mL
- MPI [7]: 68
- IC50 [8]: 0.938 µg/mL
- IC80 [8]: 4.2 µg/mL
- MPI [8]: 100
- IC50 [9]: 0.54 µg/mL
- IC80 [9]: 3.15 µg/mL
- MPI [9]: 99
- IC50 [10]: 1.4 µg/mL
- IC80 [10]: 3.76 µg/mL
- MPI [10]: 99

Substance: N49P9 (antibody)
- IC50 [1]: 0.042 µg/mL
- IC80 [1]: 0.129 µg/mL
- MPI [1]: 100
- IC50 [2]: 0.136 µg/mL
- IC80 [2]: 0.485 µg/mL
- MPI [2]: 100
- IC50 [3]: 0.089 µg/mL
- IC80 [3]: 0.777 µg/mL
- MPI [3]: 95
- IC50 [4]: 0.727 µg/mL
- IC80 [4]: 3.29 µg/mL
- MPI [4]: 100
- IC50 [5]: 0.089 µg/mL
- IC80 [5]: 0.375 µg/mL
- MPI [5]: 100
- IC50 [6]: 0.072 µg/mL
- IC80 [6]: 0.2 µg/mL
- MPI [6]: 100
- IC50 [7]: 0.308 µg/mL
- IC80 [7]: 0.701 µg/mL
- MPI [7]: 100
- IC50 [8]: 0.147 µg/mL
- IC80 [8]: 0.517 µg/mL
- MPI [8]: 100
- IC50 [9]: 0.025 µg/mL
- IC80 [9]: 0.081 µg/mL
- MPI [9]: 100
- IC50 [10]: 0.07 µg/mL
- IC80 [10]: 0.252 µg/mL
- MPI [10]: 100

Substance: N49P7.2 (antibody)
- IC50 [11]: 0.085 µg/mL
- IC80 [11]: 0.237 µg/mL
- MPI [11]: 100
- IC50 [12]: 0.049 µg/mL
- IC80 [12]: 0.192 µg/mL
- MPI [12]: 100
- IC50 [13]: 0.029 µg/mL
- IC80 [13]: 0.159 µg/mL
- MPI [13]: 100
- IC50 [14]: 0.376 µg/mL
- IC80 [14]: 1.24 µg/mL
- MPI [14]: 100
- IC50 [15]: 0.119 µg/mL
- IC80 [15]: 0.574 µg/mL
- MPI [15]: 99
- IC50 [16]: 0.045 µg/mL
- IC80 [16]: 0.129 µg/mL
- MPI [16]: 100
- IC50 [17]: 0.067 µg/mL
- IC80 [17]: 0.233 µg/mL
- MPI [17]: 100
- IC50 [18]: 0.166 µg/mL
- IC80 [18]: 1 µg/mL
- MPI [18]: 100
- IC50 [19]: 0.332 µg/mL
- IC80 [19]: 1.08 µg/mL
- MPI [19]: 100
- IC50 [20]: 0.821 µg/mL
- IC80 [20]: 2.81 µg/mL
- MPI [20]: 100
- IC50 [21]: 0.874 µg/mL
- IC80 [21]: 3.88 µg/mL
- MPI [21]: 100
- IC50 [22]: 0.183 µg/mL
- IC80 [22]: 0.931 µg/mL
- MPI [22]: 97
- IC50 [23]: 0.029 µg/mL
- IC80 [23]: 0.14 µg/mL
- MPI [23]: 100
- IC50 [24]: 0.326 µg/mL
- IC80 [24]: 1.14 µg/mL
- MPI [24]: 100
- IC50 [25]: 0.21 µg/mL
- IC80 [25]: 0.673 µg/mL
- MPI [25]: 100
- IC50 [26]: 0.052 µg/mL
- IC80 [26]: 0.15 µg/mL
- MPI [26]: 100
- IC50 [27]: 0.051 µg/mL
- IC80 [27]: 0.215 µg/mL
- MPI [27]: 100
- IC50 [28]: 0.073 µg/mL
- IC80 [28]: 0.256 µg/mL
- MPI [28]: 100

Substance: N49P9.1 (antibody)
- IC50 [1]: 0.097 µg/mL
- IC80 [1]: 0.259 µg/mL
- MPI [1]: 100
- IC50 [2]: 0.17 µg/mL
- IC80 [2]: 0.579 µg/mL
- MPI [2]: 100
- IC50 [3]: 0.282 µg/mL
- IC80 [3]: 6.78 µg/mL
- MPI [3]: 90
- IC50 [4]: 0.965 µg/mL
- IC80 [4]: 3.93 µg/mL
- MPI [4]: 100
- IC50 [5]: 0.068 µg/mL
- IC80 [5]: 0.478 µg/mL
- MPI [5]: 100
- IC50 [6]: 0.062 µg/mL
- IC80 [6]: 0.218 µg/mL
- MPI [6]: 100
- IC50 [7]: 0.469 µg/mL
- IC80 [7]: 1.52 µg/mL
- MPI [7]: 100
- IC50 [8]: 0.127 µg/mL
- IC80 [8]: 0.352 µg/mL
- MPI [8]: 100
- IC50 [9]: 0.042 µg/mL
- IC80 [9]: 0.15 µg/mL
- MPI [9]: 100
- IC50 [10]: 0.091 µg/mL
- IC80 [10]: 0.392 µg/mL
- MPI [10]: 100

Substance: 10E8 (antibody)
- IC50, titer in TZM.bl cells [29]: 1.62 µg/mL
- IC80, titer in TZM.bl cells [29]: 9.06 µg/mL
- IC50, titer in TZM.bl cells [30]: 0.274 µg/mL
- IC80, titer in TZM.bl cells [30]: 2.61 µg/mL
- IC50, titer in TZM.bl cells [31]: 2.36 µg/mL
- IC80, titer in TZM.bl cells [31]: > 10 µg/mL
- IC50, titer in TZM.bl cells [32]: 0.778 µg/mL
- IC80, titer in TZM.bl cells [32]: 4.21 µg/mL
